# Reference: patent US20120207760A1 (THERACLONE SCIENCES, published 2012)
# Legend:
# [1] = target: recombinant homotrimeric HA, A/Japan/305/57 H2N2 (Influenza A virus A/Japan/305/57 (H2N2)); assay: trimeric HA microarray, transfection set 5
# [2] = target: recombinant homotrimeric HA, A/South Carolina/1/18 H1N1 (Influenza A virus A/South Carolina/1/18 …); assay: trimeric HA microarray, transfection set 5
# [3] = target: recombinant homotrimeric HA, A/Vietnam/1203/04 H5N1 (Influenza A virus A/Vietnam/1203/04 …); assay: trimeric HA microarray, transfection set 5
# [4] = target: recombinant homotrimeric HA, A/California/4/09 H1N1 (Influenza A virus A/California/4/09 …); assay: trimeric HA microarray, transfection set 5
# [5] = target: recombinant homotrimeric HA, A/Indonesia/5/05 H5N1 (Influenza A virus A/Indonesia/5/05 …); assay: trimeric HA microarray, transfection set 5
# [6] = target: recombinant homotrimeric HA, A/swine/Ontario/01911-2/99 H4N6 (Influenza A virus …); assay: trimeric HA microarray, transfection set 5
# [7] = target: recombinant homotrimeric HA, A/Solomon Islands/3/06 H1N1 (Influenza A virus A/Solomon …); assay: trimeric HA microarray, transfection set 5
# [8] = target: recombinant homotrimeric HA, A/Wisconsin/67/05 H3N2 (Influenza A virus A/Wisconsin/67/05 …); assay: trimeric HA microarray, transfection set 5
# [9] = target: hemagglutinin (HA) on live influenza A virus A/California/4/09 H1N1 (Influenza A virus A/California/04/2009 …); assay: cell-based or functional assay
# [10] = target: hemagglutinin (HA) on live influenza A virus A/Wisconsin/67/05 H3N2 (Influenza A virus A/Wisconsin/67/2005 …); assay: cell-based or functional assay
# [11] = target: hemagglutinin (HA) on live influenza A virus A/Solomon Islands/3/06 H1N1 (Influenza A virus A/Solomon …); assay: cell-based or functional assay
# [12] = target: T1, hemagglutinin (HA) of influenza A/Japan/305/57 H2N2 (Influenza A virus A/Japan/305/1957 …, UniProt P03451 16-562); assay: ELISA, inactivated whole virions coated; transfection supernatant set 4
# [13] = target: T2, hemagglutinin (HA) of influenza A/Solomon Islands/3/06 H1N1 (Influenza A virus A/Solomon …); assay: as above
# [14] = target: T2, hemagglutinin (HA) of influenza …; assay: cell-based or functional assay
# [15] = target: T1, hemagglutinin (HA) of influenza …; assay: ELISA, inactivated whole virions coated; transfection supernatant set 3
# [16] = target: T2, hemagglutinin (HA) of influenza …; assay: as above
# [17] = target: T3, M2 protein of A/Puerto Rico/8/34 (H1N1), on virus particles, infected MDCK cells or transfected cells (influenza A virus A/Puerto Rico/8/34 …, UniProt P06821 1-97); assay: ELISA on purified A/Puerto Rico/8/34 virus (FIG. 14a)
# T3 construct: whole, on cells
binder,measurement,setting,value
"TCN-560 (5084_P10) (antibody, V domains shown) VH: EVQLVESGGGLVQPGGSLRLSCAASGFIFRNYWMSWVRQAPGKGLEWVANIKQDGREKYYVDSLRGRVNISRDNAENSLYLHMNSLRVEDTAVYFCARARMVVVTGDGFDVWGHGTMVTVSS VL: DIQMTQSPSSLSASVGDRVTITCRASQNIKRYFNWYQQKPGKAPKLLIYAASNLENGVPSRFSGSGSGTDFTLTISSLQPEDFATYYCQQSFSKSWTFGQGTNVDIK",Trimeric HA Binding RLU,[1],25900 RLU
same,Trimeric HA Binding RLU,[2],30500 RLU
same,Trimeric HA Binding RLU,[3],19500 RLU
same,Trimeric HA Binding RLU,[4],31100 RLU
same,Trimeric HA Binding RLU,[5],17000 RLU
same,Trimeric HA Binding RLU,[6],16800 RLU
same,Trimeric HA Binding RLU,[7],22400 RLU
same,Trimeric HA Binding RLU,[8],55400 RLU
"TCN-556 (5089_K12) (antibody, V domains shown) VH: QVQLVQSGAEVKKPGASVKVSCKASGYTFIGYDMHWVRQAPGQGLEWMGWINAKRGGTNYAQKFQGRVTMTRDTSISTAYMELNSLRSDDTAVYYCARGVGSRTTIFGVLNPEFDYWGQGTLVTVSS VL: QSALTQPPSASGSPGQSVTISCTGSSSDVGGYDYVSWYQQHPGKAPKLLIYEVTKRPSGVPDRFSGSKSGNTASLTVSGLQAEDEADYYCSSYAGNYNHVFGPGTKVTVL",Trimeric HA Binding RLU,[1],22800 RLU
same,Trimeric HA Binding RLU,[2],32700 RLU
same,Trimeric HA Binding RLU,[3],17400 RLU
same,Trimeric HA Binding RLU,[4],20900 RLU
same,Trimeric HA Binding RLU,[5],15200 RLU
same,Trimeric HA Binding RLU,[6],19300 RLU
same,Trimeric HA Binding RLU,[7],23400 RLU
same,Trimeric HA Binding RLU,[8],44700 RLU
"TCN-542 (5079_A16) (antibody, V domains shown) VH: QVQLQESGPGLVKPSQTLSLTCTVSGGSISSGNYYWNWVRQHPGKGLEWIGYIYYRGSTFYNPSLKSRVTISIDTSKNQFSLRLSSVTAADTAVYYCAKDTRSSLDNYQYGMDVWGQGTTVTVSS VL: QTVVTQEPSLTVSPGGTVTLTCASSTGAVTSSYFPNWFQQKPGQAPRPLIYSTTIRHSWTPARFSGSLLGGKAALTLSGVQPEDEADYYCLLYSGGDPVAFGGGTKLTVL",% Neutralization,[9],15%
same,% Neutralization,[10],8%
same,% Neutralization,[11],99%
"TCN-536 (5095_N01) (antibody, V domains shown) VH: QVQLQQWGAGLLKPSETLSLTCAVYGGSFSVSGYYWSWIRQPPGRGLEWIGEISHGGSTNYNPSLKSRVTISVDTTKNQFSLRLSSVTAADTAVYYCARGTDPDTEVYCRVGNCAAFDYWGQGSLVTVSS VL: EIILAQSPGTLSLSPGERATLSCRASQFVSTRSLAWYQQRPGQAPRLLIYGASSRATGIPDRFSGSGSGTDFTLTISRLEPEDFAVYYCQHYGYSPRYAFGQGSKVEIK",OD450,[12],0.06 OD450
same,OD450,[13],3.52 OD450
same,% Neutralization,[14],75%
"TCN-533 (5256_A17) (antibody, V domains shown) VH: QVQLVQSGADVKKPGSSVTVSCKASGGSFSNYGINWVRQAPGQGLEWMGGIIPLINAPNYAPKFQGRVTITADMFSNIVSLQLTSLRTDDTAVYYCARRKMTTAIDYWGQGTLVTVSS VL: QPVLSQPPSASASLGASVTLTCTLSSGFDNYQVAWYQQRPGKGPRFVMRVGNGGNVASKGDGIPDRFSVSGSGLNRYLTIKNIQEDDESDYYCGADHGSGNNFVSPYVFGGGTKLTVL",OD450,[15],3.65 OD450
same,OD450,[16],3.61 OD450
same,% Neutralization,[14],56%
"TCN-546 (5089_L08) (antibody, V domains shown) VH: QVQLQQWGAGLLKPSETLSLTCGVYGGSLSDYYWSWIRQPPGKGLEWIGEINHSGGTNYNPSLKRRVTISVDTSKKQFSLKMNSVTAADTAVYYCARGTDPDTEVYCRAGNCAAFDFWGQGTLVTVSS VL: EIVLTQSPGTLSLSPGERATLSCRASHFVIGRAVAWYQQKPGQAPRLLIYGASSRATGIPDRFSGSGSGTDFTLTISRLETEDFAVFYCQHYGSSPRYAFGQGTKLEIK",% Neutralization,[9],0%
same,% Neutralization,[10],100%
same,% Neutralization,[11],98%
"TCN-535 (5246_P19) (antibody, V domains shown) VH: QVQLVQSGSEVKKPGTSVKVSCTASGSVFTNYGISWVRQAPGQGLEWMGGIIPLFGAAKYAQKFQGRVTITADESTKTVYMELSRLTSKDTAIYFCAKAPRVYEYYFDQWGQGTPVTVSS VL: EIVLTQSPGTLSLSPGERATLSCRASQSVSSSQLAWYQQKPGQAPRLIIYGASTRATGIPDRFSGSGSGTDFTLTIGRLEPEDFAVFFCQQYSTSPPTFGQGTKVDFK",OD450,[12],2.45 OD450
same,OD450,[13],3.52 OD450
same,% Neutralization,[14],82%
"TCN-032 (8I10) (antibody, V domains shown) VH: QVQLQESGPGLVKPSETLSLTCTVSGSSISNYYWSWIRQSPGKGLEWIGFIYYGGNTKYNPSLKSRVTISQDTSKSQVSLTMSSVTAAESAVYFCARASCSGGYCILDYWGQGTLVTVSS VL: DIQMTQSPSSLSASVGDRVTITCRASQNIYKYLNWYQQRPGKAPKGLISAASGLQSGVPSRFSGSGSGTDFTLTITSLQPEDFATYYCQQSYSPPLTFGGGTRVEIK",EC50,[17],~0.1 µg/mL
"TCN-532 (5262_H18) (antibody, V domains shown) VH: QVQLQESGPGLVKPSETLSLTCTVSGGSVSSETYYWSWIRQPPGKGLEWIGYIYYIGNTDYRPSLKSRVTISLDTSKNQFSLKLSSVTAADTAVYYCARGAYYDSSGYPAFYIWGQGTMVTVSS VL: QSVLTQPPSVSGAPGQRVTISCTGSSSNIGSDYDVHWYKQLPGTAPKLLIFGNSNRPSGVPDRFSGSKSGTSASLAITGLQAEDEADYYCQSYDSSLSGFHVFGSGTKVTVL",OD450,[15],0.08 OD450
same,OD450,[16],0.13 OD450
same,% Neutralization,[14],11%
"TCN-531 (5091_H13) (antibody, V domains shown) VH: EVQLVESGGDLVQPGRSLKLSCTGSGFTFGDYGVTWVRQAPGKGLEWVGFIRTRPWGGTADTAASVKGRFTISRDDSKSLAYLQMNSLKTEDTAVYYCCRDAPPNVEVASMTNWYFDLWGRGTLVTVSS VL: DIQLTQSPSSLSASVGDRVTITCRASQGILNCLAWYQQKPGKVPNLLMYAASTLQSGVPSRFSGSGFGTDFTLTISSLQPEDVATYYCQTYGGVSTFGGGTKVEIR",OD450,[15],0.09 OD450
same,OD450,[16],0.1 OD450
same,% Neutralization,[14],65%
"TCN-031 (23K12) (antibody, V domains shown) VH: EVQLVESGGGLVQPGGSLRISCAASGFTVSSNYMSWVRQAPGKGLEWVSVIYSGGSTYYADSVKGRFSFSRDNSKNTVFLQMNSLRAEDTAVYYCARCLSRMRGYGLDVWGQGTTVTVSS VL: DIQMTQSPSSLSASVGDRVTITCRTSQSISSYLNWYQQKPGKAPKLLIYAASSLQSGVPSRFSGSGSGTDFTLTISGLQPEDFATYYCQQSYSMPAFGQGTKLEIK",EC50,[17],~0.1 µg/mL
"TCN-534 (5249_B02) (antibody, V domains shown) VH: QVQLVQSGAEVKKPGSSVKVSCRESGGTFNGYTITWVRQAPGQGLEWMGGIIPMMGTVNYAQKLQGRVTITTDYFTKTAYMDLNNLRSEDTAMYYCVKIRYTGQQLLWGQGTLVTVSS VL: DIQMTQSPSTLSASIGDRVTITCRASQSIASWLAWYQQKPGKAPKLLIYEAVNLESGVPSRFSGSGSGTDFTLTISSLQPDDFATYFCQHYGTISQTFGGGTKVEIK",OD450,[12],2.45 OD450
same,OD450,[13],3.5 OD450
same,% Neutralization,[14],86%
